Results on 39 sequences are retold here after the supplement of paper PMC7877785.

The nature of this data set: self-splicing fitness, log relative to wild type (ln ratio); higher = more splicing; Tetrahymena group I intron in knt gene, E. coli kanamycin selection, DiMSum; sequences stand for … in CUCUCU…GGAGGGAAAAGUUAUCAGGCAUGCACCUGGUAGCUAGUCUUUAAACCAAUAGAUUGCAUCGGUUUAAAAGGCAAGACCGUCAAAUUGCGGGAAAGGGGUCAACAGCCGUUCAGUACCAAGUCUCAGGGGAAACUUUGAGAUGGCCUUGCAAAGGGUAUGGUAAUAAGCUGACGGACAUGGUCCUAACCACGCAGCCAAGUCCUAAGUCAACAGAUCUUCUGUUGAUAUGGAUGCAGUUCACAGACUAAAUGUCGGUCGGGGAAGAUGUAUUCUUCUCAUAAGAUAUAGUCGGACCUCUCCUUAAUGGGAGCUAGCGGAUGAAGUGAUGCAACACUGGAGCCGCUGGGAACUAAUUUGUAUGCGAAAGUAUAUUGAUUAGUUUUGGAGUACUCGUGGUCG
Summed up: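 Pooled colonies went to amplicon sequencing on an Illumina HiSeq 2500 after six replicate transformations. The plates were LB agar with 100 μg/mL carbenicillin, 50 μM IPTG and 0.2% rhamnose, with or without 25 μg/mL kanamycin, incubated overnight at 37°C or 30°C. The E. coli BL21(DE3) library had all eight P1ex-region intron nucleotides randomised, the intron placed in the knt kanamycin-resistance gene on pET-22b(+). DiMSum fitness is the error-weighted combination of replicate fold changes, kanamycin against none, normalised to wild type.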

± gives the uncertainty stated by the source.

For CGCAAGCAAUAUUACGUGGU, the “self-splicing fitness (ln)” value is, setting by setting: (30 °C) -3.75 ± 0.17; (37 °C) -3.22 ± 0.19.
For CGCCAGCAAUAUUACGAAAG, the “self-splicing fitness (ln)” value (30 °C) is -0.802 ± 0.054 and the “self-splicing fitness (ln)” value (37 °C) turned out to be 0.0641 ± 0.081.
In the case of CGCCAGCAAUAUUACGAAUG, the “self-splicing fitness (ln)” value (30 °C) is -0.783 ± 0.058 and the “self-splicing fitness (ln)” value (37 °C) was found to be 0.0658 ± 0.066.
Taken in the same sequence, the figures for CGCCAGCAAUAUUACGACUA were -2.15 ± 0.2 and -2.13 ± 0.2.
In the case of CGCCAGCAAUAUUACGAGCC, the “self-splicing fitness (ln)” value (30 °C) was -1.63 ± 0.14 and the “self-splicing fitness (ln)” value (37 °C) is -0.446 ± 0.18.
The corresponding values for CGCCAGCAAUAUUACGCACA are -1.68 ± 0.2 and -1.65 ± 0.27.
On to CGCCAGCAAUAUUACGCGAA, for which the “self-splicing fitness (ln)” value by setting is: (30 °C) -2.14 ± 0.15; (37 °C) -1.38 ± 0.15.
CGCCAGCAAUAUUACGCUUU: the “self-splicing fitness (ln)” value (30 °C) is -2.9 ± 0.13 and the “self-splicing fitness (ln)” value (37 °C) was -1.13 ± 0.12.
Take CGCCAGCAAUAUUACGGAAA: the “self-splicing fitness (ln)” value reads like this: (30 °C) -1.48 ± 0.17; (37 °C) -1.93 ± 0.17.
Taken in the same sequence, the figures for CGCCAGCAAUAUUACGGAGG were -3.32 ± 0.18 and -0.355 ± 0.12.
The corresponding values for CGCCAGCAAUAUUACGGCCG are -2.9 ± 0.14 and -0.755 ± 0.18.
As for CGCCAGCAAUAUUACGGCGG, the “self-splicing fitness (ln)” value by setting is: (30 °C) -2.23 ± 0.13; (37 °C) -1.83 ± 0.17.
As to CGCCAGCAAUAUUACGGCGU, the “self-splicing fitness (ln)” value runs as follows: (30 °C) -3.63 ± 0.46; (37 °C) -2.17 ± 0.23.
Regarding CGCCAGCAAUAUUACGGGAG, the “self-splicing fitness (ln)” value is -1.92 ± 0.072 (30 °C) and -1.38 ± 0.094 (37 °C).
The corresponding values for CGCCAGCAAUAUUACGUCCU are -4.8 ± 0.36 and -2.45 ± 0.31.
On to CGCCAGCAAUAUUACGUCGG, for which the “self-splicing fitness (ln)” value by setting is: (30 °C) -3.04 ± 0.21; (37 °C) -1.91 ± 0.21.
With CGCCAGCAAUAUUACGUCUG, the “self-splicing fitness (ln)” value (30 °C) was -2.97 ± 0.18 and the “self-splicing fitness (ln)” value (37 °C) is -0.917 ± 0.13.
With CGCCAGCAAUAUUACGUGAG, the “self-splicing fitness (ln)” value by setting is: (30 °C) -1.37 ± 0.078; (37 °C) -1.25 ± 0.11.
For CGCCAGCAAUAUUACGUGCA, the “self-splicing fitness (ln)” value (30 °C) was -0.897 ± 0.056 and the “self-splicing fitness (ln)” value (37 °C) was found to be 0.212 ± 0.085.
Take CGCGAGCAAUAUUACGAAAA: the “self-splicing fitness (ln)” value was -1.55 ± 0.43 (30 °C) and -3.06 ± 0.4 (37 °C).
With CGCGAGCAAUAUUACGAACC, the “self-splicing fitness (ln)” value (37 °C) was -0.306 ± 0.33.
With CGCGAGCAAUAUUACGAAUA, the “self-splicing fitness (ln)” value (30 °C) is -2.84 ± 0.35 and the “self-splicing fitness (ln)” value (37 °C) was -2.25 ± 0.38.
Turning to CGCGAGCAAUAUUACGACCC, the “self-splicing fitness (ln)” value (30 °C) is -0.487 ± 0.44.
CGCGAGCAAUAUUACGCGAC: the “self-splicing fitness (ln)” value is -2.96 ± 0.34 (30 °C) and -0.404 ± 0.39 (37 °C).
On to CGCGAGCAAUAUUACGCGCG, for which, where the note is “37 °C”, the “self-splicing fitness (ln)” value was -2.07 ± 0.29.
With CGCGAGCAAUAUUACGCGGC, the “self-splicing fitness (ln)” value (37 °C) was -2.4 ± 0.38.
CGCGAGCAAUAUUACGCGUA: the “self-splicing fitness (ln)” value (30 °C) is -2.59 ± 0.37 and the “self-splicing fitness (ln)” value (37 °C) was -2.52 ± 0.28.
CGCGAGCAAUAUUACGCUAA: the “self-splicing fitness (ln)” value (30 °C) was -2.95 ± 0.27 and the “self-splicing fitness (ln)” value (37 °C) was -2.55 ± 0.28.
Consider CGCGAGCAAUAUUACGCUUG, for which the “self-splicing fitness (ln)” value (30 °C) was -3.06 ± 0.2 and the “self-splicing fitness (ln)” value (37 °C) is -1.46 ± 0.22.
For CGCGAGCAAUAUUACGGGAG, the “self-splicing fitness (ln)” value is -3.66 ± 0.19 (30 °C) and -2.91 ± 0.22 (37 °C).
For CGCGAGCAAUAUUACGGGGA, the “self-splicing fitness (ln)” value runs as follows: (30 °C) -1.94 ± 0.28; (37 °C) -2.41 ± 0.29.
CGCGAGCAAUAUUACGGGGU: the “self-splicing fitness (ln)” value by setting is: (30 °C) -4.28 ± 0.23; (37 °C) -2.95 ± 0.22.
Turning to CGCGAGCAAUAUUACGGGUC, the “self-splicing fitness (ln)” value (30 °C) is -3.27 ± 0.2 and the “self-splicing fitness (ln)” value (37 °C) was -2.38 ± 0.31.
The corresponding values for CGCGAGCAAUAUUACGGUCC are -3.29 ± 0.4 and -2.12 ± 0.44.
The corresponding values for CGCGAGCAAUAUUACGGUUG are -1.73 ± 0.068 and -1.76 ± 0.12.
Take CGCGAGCAAUAUUACGUAAC: the “self-splicing fitness (ln)” value is, setting by setting: (30 °C) -2.76 ± 0.41; (37 °C) -1.76 ± 0.27.
As for CGCGAGCAAUAUUACGUAGA, the “self-splicing fitness (ln)” value (30 °C) was -3.09 ± 0.15 and the “self-splicing fitness (ln)” value (37 °C) is -2.93 ± 0.23.
CGCGAGCAAUAUUACGUCCA: the “self-splicing fitness (ln)” value (37 °C) is -1.96 ± 0.32.
In the case of CGCGAGCAAUAUUACGUUCC, for the setting “30 °C”, the “self-splicing fitness (ln)” value is -3.49 ± 0.32.
